Data published in USRE49495E1, “Binding polypeptides having a mutated scaffold” (Affibody AB, priority 2013, dated 2023).

Key:
[1] = target: T1, human PDGF-Rβ (R&D Systems, cat. no. 385-PR-100/CF) (human, UniProt P09619 33-530, limits assumed); test: SPR Biacore 2000, PDGF-Rβ on CM5 chip, 1:1 binding with mass transfer; sample (0) before stability test; reference Z15805 (0)
T1 construct: Bought; also called platelet-derived growth factor receptor beta

[2] = target: T1, human PDGF-Rβ (R&D Systems, cat. no. …); test: SPR Biacore 2000, PDGF-Rβ on CM5 chip, 1:1 binding with mass transfer; sample (0) before stability test
[3] = target: T1, human PDGF-Rβ (R&D Systems, cat. no. …); test: SPR Biacore 2000, PDGF-Rβ on CM5 chip, 1:1 binding with mass transfer; sample (2w) after 2 weeks at 37 C
[4] = target: T1, human PDGF-Rβ (R&D Systems, cat. no. …); test: SPR Biacore 2000, PDGF-Rβ on CM5 chip, 1:1 binding with mass transfer; KD after 2 weeks at 37 C against KD before
[5] = target: T1, human PDGF-Rβ (R&D Systems, cat. no. …); test: SPR Biacore 2000, PDGF-Rβ on CM5 chip, 1:1 binding with mass transfer; sample (2w) after 2 weeks at 37 C; reference Z15805 (2w)
[6] = target: T2, human C5 (Quidel, cat. no. A403) (human, UniProt P01031 19-673; P01031 678-1676, limits assumed); test: BLI (ForteBio), compound captured on HSA sensor, human C5 0.79-25 nM, 1:1 model
T2 construct: Bought protein; also called hC5; human complement component 5

T1 sequence (P09619 33-530 limits assumed): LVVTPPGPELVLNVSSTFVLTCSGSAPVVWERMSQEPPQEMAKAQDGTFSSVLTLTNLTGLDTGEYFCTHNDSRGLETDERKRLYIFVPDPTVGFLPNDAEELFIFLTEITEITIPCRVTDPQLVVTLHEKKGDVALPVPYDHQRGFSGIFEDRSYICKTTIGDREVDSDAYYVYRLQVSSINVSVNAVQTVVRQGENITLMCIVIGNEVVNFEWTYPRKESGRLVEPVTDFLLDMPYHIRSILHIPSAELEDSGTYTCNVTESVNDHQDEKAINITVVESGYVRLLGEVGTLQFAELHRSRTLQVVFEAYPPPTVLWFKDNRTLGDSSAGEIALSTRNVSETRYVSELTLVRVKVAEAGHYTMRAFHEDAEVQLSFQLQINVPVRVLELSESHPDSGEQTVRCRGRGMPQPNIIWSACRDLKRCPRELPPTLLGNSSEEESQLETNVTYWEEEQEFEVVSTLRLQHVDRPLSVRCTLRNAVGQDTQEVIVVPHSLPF

| KDInv/KDOrig [1] | Kd [2] | koff [2] | kon [2] | Kd [3] | koff [3] | kon [3] | KD(2w)/KD(0) [4] | KDInv/KDOrig [5] | Rel. KD [6] | Binder |
| --- | --- | --- | --- | --- | --- | --- | --- | --- | --- | --- |
| 6.19 ratio | 1.2 nM | 0.0616 s⁻¹ | 5.15e+07 M⁻¹ s⁻¹ | 1.1 nM | 0.0623 s⁻¹ | 5.62e+07 M⁻¹ s⁻¹ | 0.93 ratio | 3.88 ratio |  | Z17344 (designed binder) MGSSHHHHHHLQAEAKYAKELIEAAAEIDALPNLTRRQWNAFIKKLVRQPEQSSELLSEAKKLSESQAPK |
|  |  |  |  |  |  |  |  |  | 2.1 ratio to PSI0242 | PSI0383 (designed binder, positions 52-53 changed from ND to SE against PSI0242) AEAKYAKEVLEAWDEIDRLPNLTIEQWLAFINKLDRQPEQSSELLSEAKKLSESQAPKVEGSLAEAKEAANAELDSYGVSDFYKRLIDKAKTVEGVEALKDAILAALP |
